B1: SPRY1 (parent)
chain: WIHRPGCRCKNSNTVYCKLESCPS
B2: GAGE1 (parent)
chain: QPPEMIGPMRPEQFSDEVEPATPE

Variants of: B1
Assay: protein stability index of a GFP-peptide fusion (GPS, HEK-293T) (PSI 1-6); higher = more stable
Conditions: c terminus: a fixed tail appended
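Also: lentivirally expressed fusions sorted by FACS into six bins by GFP to DsRed ratio, PSI derived from sequencing read proportions per bin multiplied by bin number.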

Protein stability index, by site and new letter:
P23: A 2.29, K 2.15, M 1.56, N 2.43, F 3.63, Y 1.99, T 1.83, Q 2.41, H 2.23, G 2.84, S 2.9, L 1.71, I 1.32, D 3.04, V 1.47, C 2.43, W 2.35, R 1.93, E 2.03
S24: N 2.1, M 2.37, P 2.16, R 1.61, F 2.09, V 2.5, D 3.1, L 2, Y 3.13, G 2.1, E 2.52, I 2.29, H 2.63, W 3.62, A 2.25, Q 2.13, K 2.05, T 2.1, C 2.5
K18: N 2.66, S 2.28, R 2.09, Q 2.25, Y 1.73, V 1.7, P 2.03, W 1.63, T 2.55
L19: H 1.89, P 2.01, T 2.44, I 1.76, D 3.51, Q 2.59, G 2.68, K 2.46, M 2.37, W 2.16, Y 2.49, N 3.33, A 3, F 2.06, C 3.1, V 2, R 2.73
E20: Y 2.61, M 1.4, A 1.84, N 2.13, F 2.37, L 2.06, C 2.41, G 2.21, R 2.91, K 2.07, V 1.77, S 2.77, H 1.78, D 2.26, I 1.5, T 2.33, P 1.92, Q 2.12
S21: Q 2.14, I 2.67, T 2.17, E 2.4, W 2.75, F 2.56, A 2.13, L 1.7, D 2.13, V 2.09, R 2.17, M 1.99, Y 2.04, H 2, P 2.74, G 2.22, C 1.8, N 2.63, K 1.79
C22: G 2.29, A 3.24, K 1.88, F 1.8, W 1.83, M 1.53, R 3.31, T 2.07, D 1.98, Q 1.98, S 2.26, P 2.68, N 1.9, Y 2.44, I 1.84, E 2.02, V 2.52, L 2.03, H 2.01

Variants of: B2
Assay: as above
Conditions: c terminus: a fixed tail appended

Protein stability index: each site, then its substitutions
P11: F 5.5, I 4.87, G 5.65, W 5.39, E 5.69, V 5.7, C 5.5, K 5.63, A 5.35, R 5.55, H 5.82, T 5.61, N 5.44, S 5.6, D 5.69, Q 5.34, M 4.9, Y 5.43, L 5.37
P8: F 4.9, M 4.75, S 5.54, D 5.1, T 5.62, V 5.67, K 5.46, H 5.47, I 5.09, G 5.45, Y 4.92, Q 5.76, R 5.24, E 5.86, N 5.91, A 5.5, L 5.52, C 5.48
P3: K 5.64, D 5.75, V 4.83, A 5.73, W 5.23, E 5.63, I 4.9, M 5.76, G 5.17, S 5.26, Y 5.32, H 5.52, L 4.76, N 5.4, C 5.44, Q 5.51, T 5.57, F 5.22, R 5.71
R10: F 5.47, C 5.51, H 5.2, D 3.42, E 5, I 5.24, W 5.34, S 5.56, V 4.98, N 5.28, Y 5.24, M 5.12, T 4.38, A 5.17, K 4.93, G 4.82, P 5.78, L 4.37, Q 4.4
E4: W 5.61, I 5.52, P 5.56, M 5.65, D 5.65, C 5.58, Q 5.68, G 5.72, R 5.74, S 5.2, H 5.6, L 5.54, F 5.62, A 5.75, Y 5.75, V 5.41, N 5.48, T 5.56, K 5.46
G7: C 5.63, S 5.68, M 5.55, A 5.38, D 5.22, H 5.48, L 5.44, K 5.54, I 5.14, E 5.69, N 5.91, T 5.46, Q 5.69, R 5.68, P 5.56, Y 5.76, V 5.68, F 5.83, W 5.73
M9: T 5.68, D 5.82, S 5.72, N 4.68, L 5.31, Q 5.49, P 5.57, F 5.54, A 5.28, E 5.62, C 5.7, I 5.13, R 5.86, G 5.5, Y 5.5, V 5.97, K 5.81, H 5.9, W 5.9
Q1: E 5.01, Y 4.8, M 5.27, W 5.49, G 4.64, F 4.95, H 5.06, D 5.42, L 5.07, I 4.78, N 5.06, T 4.94, A 4.84, R 5.04, C 5.33, S 4.89, K 4.57, V 4.68
P2: K 4.99, G 5.6, H 5.25, Q 4.64, Y 4.8, M 4.59, N 5.34, L 4.88, D 4.87, T 5.09, F 5.11, C 5.32, R 4.8, I 4.28, E 4.88, A 4.8, S 4.65, V 4.4, W 4.48
E12: G 5.01, I 5.69, A 5.33, C 5.27, D 4.57, H 5.21, F 5.87
M5: Y 4.99, N 5, I 4.57, W 5.54, E 5.15, D 5.02, R 5.81, A 5.68, K 5.27, T 5.19, P 5.9, V 4.27, Q 5.25, G 5.45, H 5.5, S 3.55, F 5.32, C 4.73, L 4.55
I6: P 5.52, G 5.45, W 5.83, R 5.86, H 5.72, F 5.89, Q 5.32, T 5.72, S 6, C 5.91, K 5.78, A 5.59, D 5.79, V 5.79, M 5.59, E 5.81, L 5.64, Y 5.65, N 5.72

— the supplement of paper PMC10567573
